Data from EP1730287B1 (Syngenta Participations AG, dated 2011).

Target: T1, NIM450 bait (first 450 amino acids of the NIM1 protein fused to the LexA DNA binding domain) (Arabidopsis, UniProt P0A7C2 1-202; P93002 1-450)
T1 construct: Truncated bait of the yeast two-hybrid screen
T1 sequence (looked up): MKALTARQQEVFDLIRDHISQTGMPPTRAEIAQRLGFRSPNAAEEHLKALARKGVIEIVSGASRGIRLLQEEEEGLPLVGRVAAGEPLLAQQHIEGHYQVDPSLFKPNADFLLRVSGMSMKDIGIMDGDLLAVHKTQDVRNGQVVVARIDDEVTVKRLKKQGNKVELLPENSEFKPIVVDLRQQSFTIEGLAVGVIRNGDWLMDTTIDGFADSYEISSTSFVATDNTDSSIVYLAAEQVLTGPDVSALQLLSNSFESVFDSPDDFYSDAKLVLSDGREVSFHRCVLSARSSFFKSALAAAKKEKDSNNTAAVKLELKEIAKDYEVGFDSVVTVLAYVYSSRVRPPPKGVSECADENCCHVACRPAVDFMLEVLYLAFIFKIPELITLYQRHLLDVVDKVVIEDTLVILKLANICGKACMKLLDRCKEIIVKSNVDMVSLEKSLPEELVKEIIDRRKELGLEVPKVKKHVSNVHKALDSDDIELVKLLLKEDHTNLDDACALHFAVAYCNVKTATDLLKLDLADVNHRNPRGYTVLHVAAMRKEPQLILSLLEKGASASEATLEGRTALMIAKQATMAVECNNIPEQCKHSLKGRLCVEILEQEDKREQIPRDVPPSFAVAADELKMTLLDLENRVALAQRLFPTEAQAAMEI
Assay: yeast two-hybrid (LexA bait, B42 prey; Leu2 and LacZ reporters)

B1: NI16 clone (Arabidopsis NI16 cDNA clone from the pJG4-5 library, fused to the B42 transcriptional activation domain) (other, not shown: large carriers)
chain: MNNSLKKEERVEEDNGKSDGNRGKPSTEVVRTVTEEEVDEFFKILRRVHVATRTVAKVNGGVAEGELPSKKRKRSQNLGLRNSLDCNGVRDGEFDEINRVGLQGLGLDLNCKPEPDSVSLSL
notes: Prey of the yeast two-hybrid screen; also called NI16 protein
binding result: no binding
